Earlier results on one substance are cited in publication PMC12865133, “Macrocyclic Molecular Glues for the 14‐3‐3/ChREBP Interaction: Affinity and Cooperativity in an Inverse Relationship” (Angewandte Chemie (International Ed. in English), 2025).

The target in the data set is ChREBP (Homo sapiens) (UniProt Q9NP71). As to conditions: cited from earlier work.
ChREBP (Homo sapiens), sequence (Q9NP71 whole entry): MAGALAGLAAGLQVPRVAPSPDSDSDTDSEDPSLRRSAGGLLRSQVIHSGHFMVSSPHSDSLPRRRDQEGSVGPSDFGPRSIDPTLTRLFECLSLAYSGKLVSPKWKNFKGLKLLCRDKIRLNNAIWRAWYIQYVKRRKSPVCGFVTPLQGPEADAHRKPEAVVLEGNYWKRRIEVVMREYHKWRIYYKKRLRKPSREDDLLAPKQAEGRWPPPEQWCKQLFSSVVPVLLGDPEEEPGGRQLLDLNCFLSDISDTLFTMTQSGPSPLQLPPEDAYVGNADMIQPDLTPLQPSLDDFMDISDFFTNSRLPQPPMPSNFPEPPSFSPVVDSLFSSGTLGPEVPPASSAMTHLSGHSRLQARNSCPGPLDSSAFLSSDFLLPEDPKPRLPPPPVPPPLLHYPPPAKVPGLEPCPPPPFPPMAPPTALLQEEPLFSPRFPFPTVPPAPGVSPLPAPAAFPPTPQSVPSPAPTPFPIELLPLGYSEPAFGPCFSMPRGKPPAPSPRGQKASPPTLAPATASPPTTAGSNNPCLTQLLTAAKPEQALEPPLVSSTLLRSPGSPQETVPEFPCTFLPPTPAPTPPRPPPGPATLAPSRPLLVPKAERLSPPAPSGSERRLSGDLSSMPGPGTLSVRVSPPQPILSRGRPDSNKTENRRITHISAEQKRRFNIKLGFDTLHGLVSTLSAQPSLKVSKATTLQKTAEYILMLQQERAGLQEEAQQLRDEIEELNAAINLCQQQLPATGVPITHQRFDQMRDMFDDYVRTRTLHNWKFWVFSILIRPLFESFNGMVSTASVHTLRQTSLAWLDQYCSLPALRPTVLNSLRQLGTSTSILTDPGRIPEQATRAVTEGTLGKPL

14-3-3, sequence (P31946 2-246): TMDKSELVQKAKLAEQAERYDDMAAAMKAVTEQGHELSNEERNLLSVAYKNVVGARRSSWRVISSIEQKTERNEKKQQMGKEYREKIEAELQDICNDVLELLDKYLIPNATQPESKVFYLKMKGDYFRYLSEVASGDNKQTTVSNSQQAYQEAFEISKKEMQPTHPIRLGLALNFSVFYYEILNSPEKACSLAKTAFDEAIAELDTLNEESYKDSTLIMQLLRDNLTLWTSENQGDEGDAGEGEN

Regarding 14-3-3 (from UniProt P31946), the Kd was 1.5 µM.

The Kd is a measure of binding affinity in units of concentration.
